In patent publication US20210132079A1, “ANTIBODY” (UCB Biopharma SRL, priority 2015, published 2021):

Experiments:
Human TNFα [1] = biological target: T1, Human TNFα (Homo sapiens, UniProt P01375); experiment: FACS assay with HEK Jumpin cells overexpressing TNF-RI, receptor-bound TNFα; assay type: cell-based; design: host or cells: HEK Jumpin cells (carry the TNF-RI; settings: antibody at 1 and 10 μg/ml; TNFα pre-incubated with compound (1) or DMSO control
Protocol: HEK cells were trypsinised and incubated for 2 h in medium to allow recovery of digested TNFRI levels.
Target sequence in this assay (P01375 77-233 limits assumed): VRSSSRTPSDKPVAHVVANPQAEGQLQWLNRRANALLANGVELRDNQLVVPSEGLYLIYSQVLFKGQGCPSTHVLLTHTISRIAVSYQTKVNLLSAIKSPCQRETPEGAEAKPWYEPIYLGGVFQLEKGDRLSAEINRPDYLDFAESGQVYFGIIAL
Target sequence in this assay (P19438 22-455 partner limits assumed): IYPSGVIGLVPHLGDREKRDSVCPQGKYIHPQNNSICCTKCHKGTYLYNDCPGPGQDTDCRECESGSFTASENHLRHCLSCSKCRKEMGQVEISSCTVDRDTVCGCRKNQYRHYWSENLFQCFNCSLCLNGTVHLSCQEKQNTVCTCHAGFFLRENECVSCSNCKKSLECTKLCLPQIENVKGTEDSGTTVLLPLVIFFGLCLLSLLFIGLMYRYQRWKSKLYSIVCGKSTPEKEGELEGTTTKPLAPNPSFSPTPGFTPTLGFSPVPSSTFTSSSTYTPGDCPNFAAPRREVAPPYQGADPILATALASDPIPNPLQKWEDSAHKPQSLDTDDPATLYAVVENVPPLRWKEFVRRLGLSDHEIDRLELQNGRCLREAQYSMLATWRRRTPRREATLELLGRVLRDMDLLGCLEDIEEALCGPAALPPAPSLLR

membrane TNFα = experiment: FACS assay with engineered NS0 cell line overexpressing membrane TNFα; assay type: cell-based; settings: Fab fragments; NS0 cells incubated with compound (1) or DMSO control
membrane TNFα, sequence (P01375 89-233 limits assumed): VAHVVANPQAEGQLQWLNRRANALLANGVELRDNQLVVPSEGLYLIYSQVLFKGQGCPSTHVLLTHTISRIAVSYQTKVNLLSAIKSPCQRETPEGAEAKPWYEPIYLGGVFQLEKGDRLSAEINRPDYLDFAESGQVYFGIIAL
Protocol: An engineered NS0 cell line, which overexpresses membrane TNFα, due to knock-out of the TACE cleavage site was incubated with 0.001-10 μM compound (1) or 0.1% DMSO for 1 h at 37° C. Cells were washed, fixed and stained with antibody Fab fragments at 0.01 or 0.1 μg/ml for 1 hour on ice. (Secondary antibody was anti-mouse Fab-DyeLight488 from Jackson ImmunoResearch).
There is no staining with the DMSO controls.

[2] = biological target: human TNFα complexed with compound (1) (Homo sapiens, UniProt P01375); experiment: Size exclusion chromatography (HPLC) of mouse Fab with TNFα-compound complex; assay type: binding; settings: Fab at 0.5×-2× molar excess
human TNFα complexed with compound (1), sequence (P01375 77-233 limits assumed, one chain of several): as the sequence (P01375 77-233 limits assumed) above

Mouse TNFα = biological target: T2, Mouse TNFα (Mus musculus, UniProt P06804); experiment: BIAcore surface plasmon resonance, captured IgG, mouse TNFα +/− test compound; assay type: binding
T2 construct: made in house
T2 sequence (P06804 80-235 limits assumed): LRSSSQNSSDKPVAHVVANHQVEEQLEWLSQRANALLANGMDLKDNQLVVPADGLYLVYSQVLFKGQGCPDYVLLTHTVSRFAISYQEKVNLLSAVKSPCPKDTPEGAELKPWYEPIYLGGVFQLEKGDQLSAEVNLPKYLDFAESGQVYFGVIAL
Protocol: (§1) Surface plasmon resonance was performed at 25° C. using a BIAcore T200 (GE Healthcare). Anti-Mouse Fc (Jackson 115-006-071) was immobilised on a […] Sensor Chip (GE Healthcare) via amine coupling chemistry to a capture level of 6000 response units. HBS-EP buffer (10 mM HEPES pH 7.4, 0.15 M NaCl, 3 mM EDTA, 0.05% (v/v) surfactant P20—GE Healthcare)+1% DMSO was used as the running buffer.
(§2) The surface was regenerated at a flow-rate of […] by a 60 s injection of 40 mM HCl×2 and a 30 s 5 mM NaOH. Double referenced background subtracted binding curves were analysed using the T200 Evaluation software (version 1.0) following standard procedures. Kinetic parameters were determined from the fitting algorithm.

Human TNFα [3] = biological target: T1, Human TNFα; experiment: BIAcore surface plasmon resonance, captured IgG, human TNFα +/− test compound; assay type: binding; design: Soluble form of human TNFα; made in house
Protocol: as §1, §2
Target sequence in this assay (P01375 with tags, fused parts or gaps): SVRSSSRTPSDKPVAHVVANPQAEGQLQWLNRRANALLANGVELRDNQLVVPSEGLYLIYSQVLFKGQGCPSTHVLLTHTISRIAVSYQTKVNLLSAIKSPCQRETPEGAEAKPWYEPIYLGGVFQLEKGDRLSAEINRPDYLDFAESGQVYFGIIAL

B1: CA185_01979: rat-derived conformation-selective antibody to compound-bound TNFα; LCVR SEQ ID NO: 22, HCVR SEQ ID NO: 23 (antibody, V domains shown)
VH: EVHLVESGPGLVKPSQSLSLTCSVTGYSITNSYWDWIRKFPGNKMEWMGYINYSGSTGYNPSLKSRISISRDTSNNQFFLQLNSITTEDTATYYCARGTYGYNAYHFDYWGRGVMVTVSS
VL: DIQMTQSPASLSASLEEIVTITCQASQDIGNWLSWYQQKPGKSPHLLIYGTTSLADGVPSRFSGSRSGTQYSLKISGLQVADIGIYVCLQAYSTPFTFGSGTKLEIK
modifications: HCVR of 1979; DIQMTQSPASLSASLEEIVTITCQASQDIGNWLSWYQQKPGKSPHLLIYGTTSLADGVPSRFSGS RSGTQYSLKISGLQVADIGIYVCLQAYSTPFTFGSGTKLEIK
For B1, the “FACS staining of receptor-bound TNFα” value (Human TNFα [1]) was “only recognise TNFα which has been pre-incubated with compound (1)”, the “FACS staining of membrane-bound TNFα” value (membrane TNFα) was “only recognise TNF which has been pre-incubated with compound (1)” and the “stoichiometry of Fab binding to TNFα trimer” value [2] was 1 Fab: 1 TNFα trimer. The Kd (Mouse TNFα; Mouse TNFα + compound (1)) was 0.38 nM, the ka (Mouse TNFα; Mouse TNFα + compound (1)) was 160000 M⁻¹ s⁻¹ and the kd (Mouse TNFα; Mouse TNFα + compound (1)) was 6.3e-05 s⁻¹. For the same molecule, the ka (Mouse TNFα; Mouse TNFα + compound (2)) was 190000 M⁻¹ s⁻¹, the kd (Mouse TNFα; Mouse TNFα + compound (2)) was 3.5e-05 s⁻¹ and the Kd (Mouse TNFα; Mouse TNFα apo) was 27 nM. The ka (Mouse TNFα; Mouse TNFα apo) was 72000 M⁻¹ s⁻¹, the kd (Mouse TNFα; Mouse TNFα apo) was 0.002 s⁻¹ and the ka (Human TNFα [3]; Human TNFα + compound (1)) was 470000 M⁻¹ s⁻¹. It also gave a kd (Human TNFα [3]; Human TNFα + compound (1)) of 1.6e-05 s⁻¹, a ka (Human TNFα [3]; Human TNFα + compound (2)) of 570000 M⁻¹ s⁻¹ and a kd (Human TNFα [3]; Human TNFα + compound (2)) of 3.3e-05 s⁻¹. It also gave a ka (Human TNFα [3]; Human TNFα apo) of 110000 M⁻¹ s⁻¹ and a kd (Human TNFα [3]; Human TNFα apo) of 0.00071 s⁻¹.
